Source: paper PMC6601351 (Structure (London, England : 1993), 2018)

Experiments:
Experiment in all cases: ITC
[1] = molecular target: PP1α_(7–330) (human) (UniProt P62136)
[2] = molecular target: PP1γ_(7–323) (human, UniProt P36873 7-323)
[3] = molecular target: PP1γ_(7–300) (human, UniProt P36873 7-300)
Chain of PP1γ_(7–300) (P36873 7-300): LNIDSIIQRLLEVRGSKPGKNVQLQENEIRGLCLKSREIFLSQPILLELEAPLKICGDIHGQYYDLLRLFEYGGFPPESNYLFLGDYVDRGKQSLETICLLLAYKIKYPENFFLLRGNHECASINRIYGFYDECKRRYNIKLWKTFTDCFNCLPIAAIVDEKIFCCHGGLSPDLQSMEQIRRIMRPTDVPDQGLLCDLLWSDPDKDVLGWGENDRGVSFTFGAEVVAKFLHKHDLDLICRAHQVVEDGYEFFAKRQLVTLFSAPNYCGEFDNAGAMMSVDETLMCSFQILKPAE

Chain of PP1γ_(7–323) (P36873 7-323): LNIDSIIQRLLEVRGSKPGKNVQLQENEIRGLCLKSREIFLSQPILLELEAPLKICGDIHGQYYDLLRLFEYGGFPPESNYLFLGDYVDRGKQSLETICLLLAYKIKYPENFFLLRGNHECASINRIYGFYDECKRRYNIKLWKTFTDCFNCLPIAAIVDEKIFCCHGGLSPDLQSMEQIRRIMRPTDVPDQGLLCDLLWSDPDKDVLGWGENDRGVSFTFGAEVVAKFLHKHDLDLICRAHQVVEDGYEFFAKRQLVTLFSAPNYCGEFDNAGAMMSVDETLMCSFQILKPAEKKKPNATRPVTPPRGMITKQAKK

Row | Molecule | Kd [1] [nM] | dH [1] [kcal/mol] | Kd [2] [nM] | dH [2] [kcal/mol] | Kd [3] [nM] | dH [3] [kcal/mol]
1 | KNL1_(1–80)S56D (from UniProt Q8NG31 1-80) (domain or fragment) | 14.7 | -12.4 |  |  |  | 
2 | KNL1_(1–80)S60A (from UniProt Q8NG31 1-80) (domain or fragment) | 154 | -20.1 |  |  |  | 
3 | KNL1_(1–80)S24DS25D (from UniProt Q8NG31 1-80) (domain or fragment) | 267 | -10.9 |  |  |  | 
4 | KNL1_(1–80) (from UniProt Q8NG31 1-80) (domain or fragment) | 46.4 | -22.6 |  |  |  | 
5 | KNL1_(1–80)S24AS25A (from UniProt Q8NG31 1-80) (domain or fragment) | 93.5 | -21.5 |  |  |  | 
6 | KNL1_(23–80) (from UniProt Q8NG31 23-80) (domain or fragment) | 89 | -13.7 |  |  |  | 
7 | KNL1_(1–80)S60D (from UniProt Q8NG31 1-80) (domain or fragment) | 236 | -30.7 |  |  |  | 
8 | KNL1_(1–80)SILK/AAAA (SILK_(dead)) (from UniProt Q8NG31 1-80) (domain or fragment) | 228 | -21.5 |  |  |  | 
9 | KNL1_(1–80) (domain or fragment, human, UniProt Q8NG31 1-80, looked up) MDGVSSEANEENDNIERPVRRRHSSILKPPRSPLQDLRGGNERVQESNALRNKKNSRRVSFADTIKVFQTESHMKIVRKS |  |  | 38.3 | -8.6 |  | 
10 | KNL1_(1–150) (domain or fragment, human, UniProt Q8NG31 1-150, looked up) MDGVSSEANEENDNIERPVRRRHSSILKPPRSPLQDLRGGNERVQESNALRNKKNSRRVSFADTIKVFQTESHMKIVRKSEMEGCSAMVPSQLQLLPPGFKRFSCLSLPETETGENLLLIQNKKLEDNYCEITGMNTLLSAPIHTQMQQK |  |  | 55.2 | -9.3 |  | 
11 | KNL1_(23–80) (domain or fragment, human, UniProt Q8NG31 23-80, looked up) HSSILKPPRSPLQDLRGGNERVQESNALRNKKNSRRVSFADTIKVFQTESHMKIVRKS |  |  | 52.4 | -10 | 82 | -28.3
